Values joined by “and” are separate entries in the source; they are usually repeats but may differ in a detail not shown here. Equal entries are not always repeated. “Also recorded” adds a separate entry of the source.
Key:
c-Kit dimer = experiment: Biacore binding to c-Kit dimer versus soluble monomer; design: species or system human
Description: Activation of c-Kit upon binding by stem cell factor (SCF) leads to dimerization/oligomerization, autophosphorylation and receptor internalization, most likely through a clathrin-dependent pathway. The SR-1 monoclonal antibody binds the c-Kit dimer with 1000-fold higher affinity compared to the soluble c-Kit extra-cellular domain monomer as determined by Biacore.
Carbohydrates present on a glycoprotein can influence biological and functional properties. […] This is an important characteristic not predicted to be translated with certainty with the humanization and as the soluble c-Kit monomer is less likely to act as a sink for the antibody in vivo.

c-Kit in MO7e cells = experiment: SCF-mediated c-Kit phosphorylation and internalization in MO7e cells; format: cell-based
[1] = tested on: human CD34+, CD 117+ (c-Kit) bone marrow cells; experiment: CD34+ bone marrow cell CFU assay (SCF/GM-CSF colony formation), human; format: cell-based
Experimental: (§1) The SR-1 monoclonal antibody was selected based on its equivalent functional potency at human and monkey c-Kit in the CD34+ bone marrow cell CFU assay (inhibition at 1.0 ug/mL), and its monkey PK.

[2] = tested on: Cultured human mast cells derived from bone marrow CD34+ cells; experiment: Cultured human mast cell assays (survival, c-Kit phosphorylation, aggregation); format: cell-based
[3] = tested on: U-937 cells expressing Fcγ receptor I=CD64, Fcγ receptor II=CD32 and Fcγ receptor III=CD16; experiment: Non-specific FcR binding to U-937 cells; format: cell-based
Description: (§2) In contrast, binding of SR-1 IgG1 and IgG4β isotypes was detected presumably to the high affinity FcγRI. […] Aglycosylated chimeric mouse/human IgG1 antibodies have been reported to […] (Hybridoma. 1991 April; 10(2):211-7) and so these desired activities of hSR-1 aIgG1 are not expected.

[4] = Effector function (CDC, ADCC); format: cell-based
Description: as §2

[5] = Exposure after repeated once-weekly dosing; format: in vivo, African green monkeys; conditions: preliminary exposure data
Description: Based on preliminary exposure data of SR-1 and humanized antibodies in African green monkeys after repeated once-weekly dosing, humanized antibodies achieved higher exposures compared to SR-1. […] 1992; 35(3): 165-74.

[6] = tested on: basal lung and colon mast cells; experiment: Depletion of basal lung and colon mast cells in monkey; format: in vivo
Experimental: as §1
[…] […] For practical reasons, basal pulmonary mast cells were evaluated on day 28 at the time of necropsy and the termination of the study.

[7] = Human dose projection (body surface area-based dose conversion); conditions: equivalent dosing regimen, preliminary estimation
Experimental: The minimal effective dose in the wound PD model of mast cell expansion is <0.3 mg/Kg administered once weekly for 2 weeks in monkeys. Based on a body surface area-based dose conversion, the minimal effective dose in human is projected to be <0.1 mg/Kg with an equivalent dosing regiment. However, this is a preliminary estimation as the PK and the pharmacodynamic relationship between the degree and duration of c-kit inhibition in human by hSR-1 aIgG1 and clinical endpoints are unknown at this time. A more accurate projection will be made when more pharmacokinetic and pharmacodynamic data are available.

[8] = In vivo tolerability in non-human primates; conditions: up to 30 mg/kg once weekly for 4 weeks or up to 150 mg/kg subcutaneously once weekly for 2 weeks
[9] = Preliminary PK study after single IV or SC administration
Experimental: A preliminary PK study was conducted to compare hSR-1 IgG2 and hSR-1 aIgG1 PK in male cynomolgus monkeys after a single IV or SC administration at 3 mg/kg.

[10] = tested on: wound activated skin mast cells; experiment: Wound pharmacodynamic model of mast cell expansion in monkey; conditions: for Fold UT-7 IC50 (Ctrough) / Inhibition of activated skin mast cells: day 14; for minimal effective dose in the wound PD model: once weekly for 2 weeks in monkeys; for inhibition of wound activated expansion of mast cells: 3 weeks
c-Kit [11] = target: T1, c-Kit (Homo sapiens, UniProt P10721); experiment: Cell based assays of c-Kit signaling (functional potency, agonism, internalization); design: endogenous in cells; host or cells: MO7e cells; cultured human mast cells derived from bone marrow CD34+ cells; primary human CD34+ CD117+ bone marrow cells; UT-7 cells; conditions: all cell based assays tested
Description: These properties are potentially undesirable since the aim of a therapeutic strategy is to apoptotically deplete mast cells and precurors by blocking the survival SCF signal and to avoid mast cell activation that could lead to anaphylactoid reactions in vivo. When the mouse SR-1 CDR regions were inserted in the human IgG1 framework, affinity and functional potency were also maintained, but this background is less desirable due to the complement activation and cell mediated cytotoxicity often found with this isotype of antibody.
The aglycosylated IgG1 isotype was chosen to avoid effector function and cell killing through bystander effects. […] It also depletes mast cells in vivo as expected.

monkey c-Kit = experiment: CD34+ bone marrow cell CFU assay, monkey; format: cell-based; conditions: 1.0 ug/mL
Experimental: as §1

hematopoiesis = experiment: Hematopoiesis in SR-1 dose-ranging study; format: in vivo, African green monkey
Experimental: (§3) SR-1 was used in dose-ranging studies from 3 to 30 mg/Kg administered once weekly for 4 weeks to determine the exposures required to inhibit hematopoiesis, spermatogenesis and active melanogenesis. A full blood panel including cell differentials was performed on blood samples taken at baseline, day 4, 7, 14, 21 and 28 after the start of the study. Analysis of freshly isolated blood samples was performed at the Queen Elizabeth Hospital Clinical Hematology lab, Barbados.
(§4) The effect of 3-30 mpk administered once weekly for 4 weeks on melanogenesis was also examined since there may be utility in melanoma. To assess the effects on activated melanocytes which may better reflect a disease state, hair was depilated to activate melanogenesis. […] In the 10 mg/Kg cohort, SR-1 exposures were >8000-fold the UT-7 IC50.

melanocytes = experiment: Melanogenesis (hair pigmentation after depilation) in dose-ranging study; format: in vivo, monkeys
Experimental: as §3, §4

spermatogenesis = experiment: Spermatogenesis in dose-ranging study; format: in vivo, monkey
c-Kit [12] = target: T1, c-Kit; design: endogenous in cells; host or cells: MO7e cells; cultured human mast cells derived from bone marrow CD34+ cells; primary human CD34+ CD117+ bone marrow cells; UT-7 cells; conditions: Broudy, J Cell Physiol. 1994; cited from earlier work
[13] = IV, 3 mg/kg, male cynomolgus monkeys
[14] = SC, 3 mg/kg, male cynomolgus monkeys

T1 sequence (P10721 26-976): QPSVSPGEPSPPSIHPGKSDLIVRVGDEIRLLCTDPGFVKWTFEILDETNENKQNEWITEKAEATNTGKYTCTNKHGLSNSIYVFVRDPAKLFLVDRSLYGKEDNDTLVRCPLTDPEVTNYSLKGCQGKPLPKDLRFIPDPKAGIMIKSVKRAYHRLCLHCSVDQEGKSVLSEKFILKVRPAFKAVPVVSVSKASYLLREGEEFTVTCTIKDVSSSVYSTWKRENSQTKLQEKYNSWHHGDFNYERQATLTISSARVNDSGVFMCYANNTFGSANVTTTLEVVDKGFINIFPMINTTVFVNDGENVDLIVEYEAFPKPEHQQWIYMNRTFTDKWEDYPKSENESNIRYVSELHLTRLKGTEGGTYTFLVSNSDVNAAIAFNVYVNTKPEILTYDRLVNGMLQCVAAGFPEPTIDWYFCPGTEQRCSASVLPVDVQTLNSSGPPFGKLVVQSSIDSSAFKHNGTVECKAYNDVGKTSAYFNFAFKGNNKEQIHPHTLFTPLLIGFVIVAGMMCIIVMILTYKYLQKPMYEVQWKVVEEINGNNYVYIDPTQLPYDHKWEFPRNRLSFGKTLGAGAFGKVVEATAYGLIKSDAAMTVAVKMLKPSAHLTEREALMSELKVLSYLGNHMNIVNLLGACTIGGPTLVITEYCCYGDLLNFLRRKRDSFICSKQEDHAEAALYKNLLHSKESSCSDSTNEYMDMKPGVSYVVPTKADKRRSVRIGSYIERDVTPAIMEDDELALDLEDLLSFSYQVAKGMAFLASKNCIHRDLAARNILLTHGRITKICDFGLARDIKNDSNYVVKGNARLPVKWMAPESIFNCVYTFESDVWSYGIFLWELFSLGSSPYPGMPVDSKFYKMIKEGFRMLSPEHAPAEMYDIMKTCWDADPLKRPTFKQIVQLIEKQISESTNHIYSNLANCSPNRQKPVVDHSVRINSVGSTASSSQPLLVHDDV
c-Kit dimer, sequence (P10721 26-509 limits assumed): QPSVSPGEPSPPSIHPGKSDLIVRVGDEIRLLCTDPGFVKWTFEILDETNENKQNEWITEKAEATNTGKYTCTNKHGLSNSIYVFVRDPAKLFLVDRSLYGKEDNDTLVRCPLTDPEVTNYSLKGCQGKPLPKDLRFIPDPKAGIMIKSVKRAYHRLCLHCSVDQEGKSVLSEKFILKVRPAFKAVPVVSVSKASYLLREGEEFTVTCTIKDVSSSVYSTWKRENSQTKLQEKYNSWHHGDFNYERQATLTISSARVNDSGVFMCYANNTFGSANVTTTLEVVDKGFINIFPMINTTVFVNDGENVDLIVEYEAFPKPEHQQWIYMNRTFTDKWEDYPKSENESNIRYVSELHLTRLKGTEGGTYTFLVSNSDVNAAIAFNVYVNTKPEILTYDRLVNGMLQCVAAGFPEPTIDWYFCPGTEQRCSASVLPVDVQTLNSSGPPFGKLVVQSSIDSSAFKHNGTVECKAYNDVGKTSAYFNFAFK

With “hSR-1 aIgG1: Humanized anti-c-Kit aglycosylated IgG1 antibody; kappa light chain SEQ ID NO: 2, heavy chain SEQ ID NO: 4” the “binding to receptor dimer / membrane c-Kit versus monomer / soluble c-Kit” value (c-Kit dimer) was “higher affinity to the membrane c-Kit compared to soluble c-kit; also recorded: high affinity to the receptor dimer versus monomer”, the “inhibition of SCF-mediated c-Kit phosphorylation and internalization” value (c-Kit in MO7e cells) was “potently inhibited” and the “agonism in c-Kit receptor proximal phosphorylation read-out” value (c-Kit in MO7e cells; antibody alone) was “no evidence of agonism”. The “survival relative to baseline” value [1] was “inhibit survival below baseline”, the “neutralization of the synergistic effect of SCF on GM-CSF derived colony formation” value ([1]; 1.0 ug/mL) was “neutralization” and the “intrinsic agonistic survival activity” value ([1]; up to 10 ug/mL) was “no intrinsic agonistic survival activity”. The “homotypic mast cell aggregation / clustering” value [2] was “no ability to mediate homotypic mast cell aggregation”, the “inhibition of SCF-dependent mast cell survival” value [2] was “inhibited” and the “c-Kit receptor phosphorylation mediated by the antibody” value ([2]; FIG. 3) was “did not mediate”. For the same molecule, the “survival signal conferred to mast cells (agonist activity)” value ([2]; antibody alone) was “conferred no survival signal”, the “non-specific FcR binding” value [3] was “no detectable” and the “complement dependent cytotoxic cell death” value [4] was “no complement dependent cytotoxic cell death”. For the same molecule, the ADCC activity ([4]; predicted from lack of FcR binding) was “no ADCC activity”, the “exposure compared within group” value [5] was “equal best in group PK” and the “Depletion of basal colon mast cells” value ([6]; 0.3 mg/kg once weekly, day 14) was “no efficacy; also recorded: No effect”. For the same molecule, the “Depletion of basal colon mast cells” value ([6]; 1.0 mg/kg once weekly, day 14) was >65%, the “Depletion of basal colon mast cells” value ([6]; 3.0 mg/kg once weekly, day 14) was >95% and the “projected minimal effective dose in human” value [7] was < 0.1 mg/kg. For the same molecule, the “abnormalities on in vivo dosing” value [8] was “No unexpected abnormalities”, the AUC0-tlast [9, 13] was 9710 µg·h/mL and the C0 [9, 13] was 103 µg/mL. The CL ([9]; IV, 3 mg/kg, calculated based on AUC0-tlast) was “≦0.309 mL/hr/kg”, the AUC0-tlast [9, 14] was 7970 µg·h/mL and the Cmax [9, 14] was 36.4 µg/mL. The Tmax [9, 14] was 72 h, the PK time profile ([9]; single IV or SC 3 mg/kg) was “non-linear PK” and the “Fold UT-7 IC50 (Ctrough)” value ([10]; 0.3 mg/kg once weekly) was >200 fold. For the same molecule, the “Fold UT-7 IC50 (Ctrough)” value ([10]; 1.0 mg/kg once weekly) was >2000 fold, the “Inhibition of activated skin mast cells” value ([10]; 1.0 mg/kg once weekly) was >95% and the “Fold UT-7 IC50 (Ctrough)” value ([10]; 3.0 mg/kg once weekly) was >7000 fold. The “Inhibition of activated skin mast cells” value ([10]; 3.0 mg/kg once weekly) was >95%, the “minimal effective dose in the wound PD model” value [10] was < 0.3 mg/kg and the “antagonism of SCF” value (c-Kit [11]) was “highly potent neutral antagonist”. For the same molecule, the “agonism of c-Kit” value (c-Kit [11]; proximal and distal read-outs) was “no agonism”.

B1: SR-1: Murine anti-human c-Kit antibody; light chain SEQ ID NO: 8, muIgG2a heavy chain SEQ ID NO: 10 (antibody, listed as Homo sapiens)
heavy: MGWSCIILFLVATATGVHSQVQLQQPGAELVKPGASVKMSCKASGYTFTSYNMHWVKQTPGQGLEWIGVIYSGNGDTSYNQKFKGKATLTADKSSSTAYMQINSLTSEDSAVYYCARERDTRFGNWGQGTLVTVSAAKTTAPSVYPLAPVCGDTTGSSVTLGCLVKGYFPEPVTLTWNSGSLSSGVHTFPAVLQSDLYTLSSSVTVTSSTWPSQSITCNVAHPASSTKVDKKIEPRGPTIKPCPPCKCPAPNLLGGPSVFIFPPKIKDVLMISLSPIVTCVVVDVSEDDPDVQISWFVNNVEVHTAQTQTHREDYNSTLRVVSALPIQHQDWMSGKEFKCKVNNKDLPAPIERTISKPKGSVRAPQVYVLPPPEEEMTKKQVTLTCMVTDFMPEDIYVEWTNNGKTELNYKNTEPVLDSDGSYFMYSKLRVEKKNWVERNSYSCSVVHEGLHNHHTTKSFSRTPGK
light: METDTLLLWVLLLWVPGSTGNIVLTQSPASLAVSLGLRATISCRASESVDIYGNSFMHWYQQKPGQPPKLLIYLASNLESGVPARFSGSGSRTDFTLTIDPVEADDAATYYCQQNNEDPYTFGGGTKLEIKRADAAPTVSIFPPSSEQLTSGGASVVCFLNNFYPKDINVKWKIDGSERQNGVLNSWTDQDSKDSTYSMSSTLTLTKDEYERHNSYTCEATHKTSTSPIVKSFNRNEC
In the case of B1, the “affinity for c-Kit dimer compared to soluble c-Kit extra-cellular domain monomer” value (c-Kit dimer; Biacore) is reported as 1000 fold, the “functional potency at human c-Kit in CFU assay” value ([1]; 1.0 ug/mL) is reported as “inhibition” and the “functional potency at monkey c-Kit in CFU assay” value (monkey c-Kit) is reported as “inhibition”. For the same molecule, the “Ctrough PK level as fold the UT-7 cellular IC50” value ([6]; 3.0 mg/Kg once weekly, basal lung mast cell depletion) was > 200 fold, the “depletion of basal lung mast cells” value ([6]; 3.0 mg/Kg once weekly, day 28) was “depletion of basal lung mast cells was observed” and the “depletion of basal colon mast cells, time course” value ([6]; 3 mg/Kg to 30 mg/Kg once weekly, after 2 doses by day 14) was “maximally depleted”. The “Ctrough as fold the cell IC50 at depletion of basal mast cells” value ([6]; day 14) was > 800 fold, the “exposure levels as fold the UT-7 IC50” value (hematopoiesis; 30 mg/Kg once weekly over 4 weeks) was > 70,000 fold and the “impact on hematological parameters” value (hematopoiesis; 3 to 30 mg/Kg once weekly for 4 weeks, versus control and baseline) was “No significant impact”. For the same molecule, the RBCs (hematopoiesis; 4 weeks after dosing started) was “non-significant decreases”, the “CD117 positive hematopoietic stem cells” value (hematopoiesis; bone marrow) was “no depletion” and the “bone marrow histopathological analysis” value (hematopoiesis; monkey, in vivo) was “no difference between drug treated and control cohorts”. For the same molecule, the “exposures as fold the UT-7 IC50” value (melanocytes; 10 mg/Kg cohort) was > 8000 fold, the “pigmentation of newly regrown hair” value (melanocytes; 10 mg/Kg cohort) was “No effect” and the “pigmentation of newly regrown hair” value (melanocytes; 30 mg/Kg dose) was “inhibition of hair pigmentation to variable degrees”. The “normal hair color of the coat” value (melanocytes; 3-30 mpk once weekly for 4 weeks, any cohort) was “not visibly affected”, the “exposure (fold the cell IC50) required before qualitative impacts on pigmentation of newly regrown hair” value (melanocytes; monkey, in vivo) was > 8000 fold and the “no effect dose on hair pigmentation” value (melanocytes; once weekly for 4 weeks) was 10 to 30 mg/kg. For the same molecule, the “effect on spermatogenesis at lowest dose” value (spermatogenesis; 0.3 mg/Kg once weekly) was “less than the maximal effect; also recorded: sub-maximal effect”, the “exposure as fold the UT-7 IC50” value (spermatogenesis; 0.3 mg/Kg once weekly) was 7 fold and > 7 fold and the inhibition of spermatogenesis (spermatogenesis; 0.3-30 mg/Kg) was “dose-dependent inhibition”. For the same molecule, the recovery of spermatogenesis (spermatogenesis; 9 months, all dosed animals) was “Normal spermatogenesis”, the “inhibition of wound activated expansion of mast cells” value ([10]; 0.3 mpk dose) was “partial inhibition” and the “inhibition of wound activated expansion of mast cells” value ([10]; 1 and 3 mg/Kg cohorts) was “maximal efficacy”. The “effect on mast cells in wound activated model” value ([10]; FIG. 1) was “inhibits mast cells”, the “sustained Ctrough exposure (fold the IC50) required for maximal inhibition of wound-expanded mast cells” value ([10]; monkey, in vivo) was > 7 fold and the “minimal effective dose in the wound PD model” value [10] was < 0.3 mg/kg. The “intrinsic activity at c-Kit” value (c-Kit [12]) was “some agonist-like activity”.
